Results: US11896644B2, “Inhibition of beta-arrestin oligomerization in tauopathy” (UNIVERSITY OF SOUTH FLORIDA, priority 2020, dated 2024)

Test system: tau in tau P301S cortical primary neurons
Assay: Tau immunoblot of DIV18 tau P301S cortical primary neurons transduced with β-arrestin2 mutant lentivirus
Type: cell-based, mice
Details: DIV 18 tau P301S cortical primary neurons
Protocol: FIGS. 4A to 4E show β-arrestin2 oligomerization is required for suppressing tau turnover. […] Data are shown as box plots or mean±SEM.
Primary mouse hippocampal and cortical neuronal cultures were previously described (Woo J A, et al. (2019) Commun Biol 2:112; Woo J A, et al. (2017) Hum Mol Genet 26(20):3973-3988; Woo J A, et al. (2015) Cell Death Differ 22(6):1069-1070). Briefly, primary neurons were prepared from P0 mice. Both hippocampus and cortex were dissected separately in HBSS and digested with trypsin. Neurons were plated on glass coverslips coated with poly-D-lysine (Sigma-Aldrich, St Louis, MO, USA) and maintained in neurobasal medium with glutamax (Invitrogen, Carlsbad, CA, USA) and B27 supplement (Invitrogen, Carlsbad, CA, USA). […]
When DIV 18 tau P301S cortical primary neurons were transduced with either β-arrestin2 ΔIP6C or ΔIP6N lentivirus, an approximately 50% reduction in tau compared to control was evident (FIGS. 4A,4B), which represents a key finding relevant to both mechanism of action and potential therapeutic strategies. […] To determine whether β-arrestin2 oligomerization status alters tau aggregation itself, filter-trap assays were performed from Hela-V5-tau cells transfected with β-arrestin2 variants, in which tau aggregates from detergent-soluble and-insoluble lysates were captured by cellulose acetate membranes and assessed by immunoblotting.

B1: β-arrestin2 ΔIP6N: β-arrestin2 N-terminal domain mutant (K158A, K161A, and R162A), incapable of forming oligomers; dominant negative (protein, UniProt P32121 1-409, looked up, variant K158A K161A R162A)
Beta-arrestin-2: MGEKPGTRVFKKSSPNCKLTVYLGKRDFVDHLDKVDPVDGVVLVDPDYLKDRKVFVTLTCAFRYGREDLDVLGLSFRKDLFIATYQAFPPVPNPPRPPTRLQDRLLRKLGQHAHPFFFTIPQNLPCSVTLQPGPEDTGKACGVDFEIRAFCAKSLEEASHAANSVRLVIRKVQFAPEKPGPQPSAETTRHFLMSDRSLHLEASLDKELYYHGEPLNVNVHVTNNSTKTVKKIKVSVRQYADICLFSTAQYKCPVAQLEQDDQVSPSSTFCKVYTITPLLSDNREKRGLALDGKLKHEDTNLASSTIVKEGANKEVLGILVSYRVKVKLVVSRGGDVSVELPFVLMHPKPHDHIPLPRPQSAAPETDVPVDTNLIEFDTNYATDDDIVFEDFARLRLKGMKDDDYDDQLC
modifications: GFP or YFP tag
notes: dominant negative
- reduction in tau compared to control: approximately 50%
